The target of this assay is recombinant monomeric RBD of the SARS-CoV-2 spike protein, tag cleaved, labelled with Alexa Fluor 488 (SARS-CoV-2) (UniProt P0DTC2). Description: fluorescence polarisation. On the technique in general: Polarisation of emitted light reports the rotation of a fluorescent probe.

In paper PMC10202384 one finds Kd and stoichiometry N data, which are given here for one substance.

By Kd is commonly meant a measure of binding affinity in units of concentration. One may read the stoichiometry N as a count of units in the complex or per binding partner. Turning to “platelet-derived purified human αIIbβ3 protein (from UniProt P05106 27-788) (complex)”, the Kd amounted to 96 nM and the stoichiometry N turned out to be 1.3.
